Laboratory results published in patent US20210198328A1, “MODULATED CAS-INHIBITORS” (Universität Heidelberg, priority 2017, published 2021).

System: dCas9-3xRFP
Assay: Telomere labeling, automated image analysis
Format: cell-based, Streptococcus pyogenes
Conditions: U2OS, light or dark 20 h
Protocol: U2OS cells were seeded into 4-compartment CELLview cell culture dishes (Greiner Bio-One) at a density of 30,000 cells per compartment. The next day, cells were transfected with vectors encoding (i) a CMV promoter-driven dCas9-3xRFP-P2A-CASANOVA and a U6 promoter-driven telomere-targeting gRNA, (ii) a telomere-targeting gRNA and GFP transfection marker, and (iii) a CMV promoter-driven CASANOVA in a ratio of 20:6:3 using 362.5 ng total DNA and 1.5 μl JetPrime for transfection (per compartment).
In the positive control samples, vector i was replaced by a vector encoding dCas9-3xRFP (without the P2A-CASANOVA) and a U6 promoter-driven telomere-targeting RNA, and vector iii was replaced by an irrelevant DNA. […] SlowFade™ Diamond Antifade Mountant with DAPI (Invitrogen) was added and imaging was performed using the aforementioned microscopy setup and the following excitation/detection settings: 405 nm (1% laser powerV410-490 nm for DAPI, 488 nm (2% laser power)/493-578 nm for GFP, or 552 nm (1% laser power)/578-789 nm for RFP. RFP fluorescent spots (i.e., labeled telomeres) were then detected and quantified using a fully automated image analysis pipeline as follows. The ImageJ2 (beta) Integration in KNIME Version 3.5.2 (KNIME AG) was used to create an automated image processing and analysis pipeline employed for quantification of labeled telomeres. […]

B1: AcrIIA4: anti-CRISPR polypeptide of a Listeria monocytogenes prophage, SEQ ID NO: 1 (protein)
chain: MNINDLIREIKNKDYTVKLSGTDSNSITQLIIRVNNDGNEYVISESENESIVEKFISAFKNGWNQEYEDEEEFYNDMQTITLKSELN
modifications: Listeria monocytogenes
With B1 the “telomere labeling, light-independent” value was “weak”.
